The text below walks through data of FireProtDB (doi:10.1074/jbc.270.30.17712).

Where “and” joins values, the source holds several entries; their conditions need not be identical. Identical values can stand only once.

The conditions of this data set: Escherichia coli (strain K12); pH 7.8; 23 °C; Urea; Absorbance; Potassium phosphate 10 mM; transition: 3; reversible: yes; whole UniProt chain shown.

B1: Tryptophan synthase alpha chain wild type, P0A877 (protein)
chain: MERYESLFAQLKERKEGAFVPFVTLGDPGIEQSLKIIDTLIEAGADALELGIPFSDPLADGPTIQNATLRAFAAGVTPAQCFEMLALIRQKHPTIPIGLLMYANLVFNKGIDEFYAQCEKVGVDSVLVADVPVEESAPFRQAALRHNVAPIFICPPNADDDLLRQIASYGRGYTYLLSRAGVTGAENRAALPLNHLVAKLKEYNAAPPLQGFGISAPDQVKAAIDAGAAGAISGSAIVKIIEQHINEPEKMLAALKVFVQPMKAATRS
With B1, the denaturant m value is 2.5 kcal/mol/M and 1.4 kcal/mol/M; the “denaturant midpoint (higher = more stable)” value was 2.51 M and 3.73 M; the unfolding free energy is 6.4 kcal/mol and 5.2 kcal/mol.
